Laboratory results: publication PMC10397247

Columns and labels:
O7-bH = molecular target: T1, O7-bH; assay: two-hybrid library CCNG1;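 also: natural log of median RNA to DNA barcode read ratio; higher means stronger binding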
T1 chain: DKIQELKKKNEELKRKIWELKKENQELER

O8-bH = molecular target: T2, O8-bH; assay: two-hybrid library CCNG1;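 also: natural log of median RNA to DNA barcode read ratio; higher means stronger binding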
T2 chain: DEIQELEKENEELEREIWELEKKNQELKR

O9-bH = molecular target: T3, O9-bH; assay: two-hybrid library CCNG1;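 also: natural log of median RNA to DNA barcode read ratio; higher means stronger binding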
T3 chain: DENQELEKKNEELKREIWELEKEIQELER

4H3057-bN = molecular target: T4, 4H3057-bN; assay: two-hybrid library CCNG1;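 also: natural log of median RNA to DNA barcode read ratio; higher means stronger binding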
T4 chain: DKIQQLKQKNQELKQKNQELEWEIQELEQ

4H319-bN = molecular target: T5, 4H319-bN; assay: two-hybrid library CCNG1;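 also: natural log of median RNA to DNA barcode read ratio; higher means stronger binding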
T5 chain: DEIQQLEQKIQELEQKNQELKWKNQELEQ

4H3277-bN = molecular target: T6, 4H3277-bN; assay: two-hybrid library CCNG1;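 also: natural log of median RNA to DNA barcode read ratio; higher means stronger binding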
T6 chain: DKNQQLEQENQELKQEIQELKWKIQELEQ

4H348-bN = molecular target: T7, 4H348-bN; assay: two-hybrid library CCNG1
T7 chain: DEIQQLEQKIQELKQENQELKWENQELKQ

4H40-bN = molecular target: T8, 4H40-bN; assay: two-hybrid library CCNG1
T8 chain: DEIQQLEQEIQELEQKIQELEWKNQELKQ

4H477-bN = molecular target: T9, 4H477-bN; assay: two-hybrid library CCNG1
T9 chain: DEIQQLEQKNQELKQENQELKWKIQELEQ

4H492-bN = molecular target: T10, 4H492-bN; assay: two-hybrid library CCNG1
T10 chain: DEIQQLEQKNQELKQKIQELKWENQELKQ

4H741-bN = molecular target: T11, 4H741-bN; assay: two-hybrid library CCNG1
T11 chain: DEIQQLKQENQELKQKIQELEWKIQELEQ

O7-bN = molecular target: T12, O7-bN; assay: two-hybrid library CCNG1
T12 chain: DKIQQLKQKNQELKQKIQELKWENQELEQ

O8-bN = molecular target: T13, O8-bN; assay: two-hybrid library CCNG1
T13 chain: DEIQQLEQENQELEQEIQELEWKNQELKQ

O9-bN = molecular target: T14, O9-bN; assay: two-hybrid library CCNG1
T14 chain: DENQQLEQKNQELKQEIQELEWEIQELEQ

4H327-AA = molecular target: T15, 4H327-AA; assay: two-hybrid library CCmax
T15 chain: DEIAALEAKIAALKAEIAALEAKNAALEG

4H3605-AA = molecular target: T16, 4H3605-AA; assay: two-hybrid library CCmax; details: mean of both orientations
T16 chain: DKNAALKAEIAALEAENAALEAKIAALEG

4H3625-AA = molecular target: T17, 4H3625-AA; assay: two-hybrid library CCmax; details: mean of both orientations
T17 chain: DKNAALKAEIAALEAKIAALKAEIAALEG

4H3664-AA = molecular target: T18, 4H3664-AA; assay: two-hybrid library CCmax; details: mean of both orientations
T18 chain: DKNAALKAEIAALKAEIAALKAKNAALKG

4H369-AA = molecular target: T19, 4H369-AA; assay: two-hybrid library CCmax; details: mean of both orientations
T19 chain: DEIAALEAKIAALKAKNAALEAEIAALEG

4H3922-AA = molecular target: T20, 4H3922-AA; assay: two-hybrid library CCmax; details: mean of both orientations
T20 chain: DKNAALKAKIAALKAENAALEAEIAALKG

4H4033-AA = molecular target: T21, 4H4033-AA; assay: two-hybrid library CCmax; details: mean of both orientations
T21 chain: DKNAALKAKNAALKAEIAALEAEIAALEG

4H481-AA = molecular target: T22, 4H481-AA; assay: two-hybrid library CCmax; details: mean of both orientations
T22 chain: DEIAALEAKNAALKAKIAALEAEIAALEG

4H55-AA = molecular target: T23, 4H55-AA; assay: two-hybrid library CCmax; details: mean of both orientations
T23 chain: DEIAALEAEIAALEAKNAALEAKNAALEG

4H662-AA = molecular target: T24, 4H662-AA; assay: two-hybrid library CCmax; details: mean of both orientations
T24 chain: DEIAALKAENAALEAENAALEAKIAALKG

P6mS = molecular target: T25, P6mS; assay: two-hybrid library CC1
T25 chain: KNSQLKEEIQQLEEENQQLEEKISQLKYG

P7 = molecular target: T26, P7; assay: two-hybrid library CC1; details: mean of both orientations
T26 chain: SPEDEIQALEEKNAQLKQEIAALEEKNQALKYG

P7mS = molecular target: T27, P7mS; assay: two-hybrid library CC1; details: mean of both orientations
T27 chain: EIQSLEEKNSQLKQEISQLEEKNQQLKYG

P8 = molecular target: T28, P8; assay: two-hybrid library CC1; details: mean of both orientations
T28 chain: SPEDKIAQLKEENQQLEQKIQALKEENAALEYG

P8mS = molecular target: T29, P8mS; assay: two-hybrid library CC1; details: mean of both orientations
T29 chain: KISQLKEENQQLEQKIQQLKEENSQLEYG

P9 = molecular target: T30, P9; assay: two-hybrid library CC1; details: mean of both orientations
T30 chain: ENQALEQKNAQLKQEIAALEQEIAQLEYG

4H3057-bA = molecular target: T31, 4H3057-bA; assay: two-hybrid library CCNG1
T31 chain: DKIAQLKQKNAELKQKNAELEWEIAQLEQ

4H319-bA = molecular target: T32, 4H319-bA; assay: two-hybrid library CCNG1
T32 chain: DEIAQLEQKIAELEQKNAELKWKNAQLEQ

4H3277-bA = molecular target: T33, 4H3277-bA; assay: two-hybrid library CCNG1
T33 chain: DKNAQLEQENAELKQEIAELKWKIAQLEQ

4H348-bA = molecular target: T34, 4H348-bA; assay: two-hybrid library CCNG1
T34 chain: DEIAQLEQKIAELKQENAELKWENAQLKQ

4H40-bA = molecular target: T35, 4H40-bA; assay: two-hybrid library CCNG1
T35 chain: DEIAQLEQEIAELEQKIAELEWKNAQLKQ

4H477-bA = molecular target: T36, 4H477-bA; assay: two-hybrid library CCNG1
T36 chain: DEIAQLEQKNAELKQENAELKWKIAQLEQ

4H492-bA = molecular target: T37, 4H492-bA; assay: two-hybrid library CCNG1
T37 chain: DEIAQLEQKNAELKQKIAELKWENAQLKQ

4H741-bA = molecular target: T38, 4H741-bA; assay: two-hybrid library CCNG1
T38 chain: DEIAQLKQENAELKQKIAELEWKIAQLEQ

Binder: DKIQELKKKNEELKRKIWELKKENQELER [O7-bH]
- interaction score (O7-bH): -0.477
- interaction score (O8-bH): 1.5
- interaction score (O9-bH): 0.59

Binder: DKIQQLKQKNQELKQKNQELEWEIQELEQ [4H3057-bN]
- interaction score (4H3057-bN): -1.22
- interaction score (4H319-bN): -1.2
- interaction score (4H3277-bN): -0.965
- interaction score (4H348-bN): -1.34
- interaction score (4H40-bN): -1.17
- interaction score (4H477-bN): -2.69
- interaction score (4H492-bN): -1.18
- interaction score (4H741-bN): -0.673

Binder: DKNQQLKQKIQELKQENQELEWKIQELKQ [O6-bN]
- interaction score (O7-bN): -0.589
- interaction score (O8-bN): -0.754
- interaction score (O9-bN): -1.38

Binder: DENQQLEQEIQELEQKNQELKWEIQELEQ [O5-bN]
- interaction score (O7-bN): -0.471
- interaction score (O8-bN): -0.445
- interaction score (O9-bN): -1.42

Binder: DEIAALEAKIAALKAEIAALEAKNAALEG [4H327-AA]
- interaction score (4H327-AA): 1.84
- interaction score (4H3605-AA): -1.29
- interaction score (4H3625-AA): 1.3
- interaction score (4H3664-AA): 0.733
- interaction score (4H369-AA): -0.747
- interaction score (4H3922-AA): 0.621
- interaction score (4H4033-AA): 0.297
- interaction score (4H481-AA): -0.644
- interaction score (4H55-AA): -0.319
- interaction score (4H662-AA): -1.42

Binder: KNSQLKEEIQQLEEENQQLEEKISQLKYG [P6mS]
- interaction score (P6mS): -2.84
- interaction score (P7): -2.01
- interaction score (P7mS): -2.67
- interaction score (P8): -2.63
- interaction score (P8mS): -2.85
- interaction score (P9): -2.37

Binder: DKIAQLKQKNAELKQKNAELEWEIAQLEQ [4H3057-bA]
- interaction score (4H3057-bA): -0.859
- interaction score (4H319-bA): -1.24
- interaction score (4H3277-bA): -1.24
- interaction score (4H348-bA): -1.57
- interaction score (4H40-bA): -1.17
- interaction score (4H477-bA): -1.12
- interaction score (4H492-bA): -1.16
- interaction score (4H741-bA): -1.38
